Laboratory results taken from the nanobody polyreactivity screen of Harvey et al. (2022).

Assay: yeast display, Sf9 membrane polyspecificity reagent, FACS + sequencing; frameworks hold sequencing errors
How it was run: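 A nanobody's polyreactivity label depends on the gate it was sorted from. Yeast display cells were stained with 10% biotinylated, detergent-solubilized Sf9 membrane reagent for 1 hour at 4 °C, enriched on streptavidin microbeads and sorted by FACS. The low and high (top ~1%) gates were set on anti-HA fluorescence for expression and streptavidin fluorescence for reagent binding.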

Row | Sequence | polyreactivity (PSR sort gate)
1 | QVQLVESGGGLVQAGGSLRLSCAASGRTFEQYAMVWYRQAPGKERELVAAISGSGGSTFYADSVKGRFTISRDNAKNTVYLQMNSLKPEDTAVYYCNAPGDGYLYDHTYDYGGQGTQVTVSS | low polyreactivity
2 | QVQLVESGGGLVQAGGSLRLSCAASARIFKLNAMGGYRQAPVKERELVAAINSGTRTYYADSVKGRFSISRDNAKNTVYLQMKSLKPEDTAVYYGAAEGVWWYSRYDYWGQGTQVTVSS | high polyreactivity
3 | QVQLVESGGGLVQAGGSLRLSCAASGITFLSNAMGWYRQAPGKERELVAAIDWRGDSTYYADSVKGRFTISRDNAKNTGYLQMNRLKPEDTAVYYCNADISGSGQWDGYDYWGQGTQVTVSS | low polyreactivity
4 | QVQLVDSGGGLVQAGGSLRLSCAASGFTFRYYAMGWYRQAPGKERELVAAISSSGTRTYYADSVKGRFTISRDNAKTTVYLQMNSLKPEDTAVYYCNAVSPTSTVDYWGQGTQVTVSS | high polyreactivity
5 | QVQLVESGGGLVQAGGSLRLSCAASGSTFSTNAMGWYRQAPGKERELVAAISRSGGRTYYADSVKGRFTISRDNAKNTVYLQMNSLKPEDTAVYYCNAVRRFASPSPHYYWGQGTQVTVSS | high polyreactivity
6 | QVQLVESGGGLVQAGGSLRLSCAASGRILGFYAMGWDRQAPGKERELVARINWSGTRTYYADSVKGRFTISRDNAKNTVYLQMNSLKPEDTAVYYCAAERYPYVVTYSKLDYWGQGTQVTVSS | high polyreactivity
7 | QVQLVESGGGLVQAGGSLRLSCAASGSIIVYNAMGWYRQAPGKERELVAAITGRVGSTYYADSVKGRFTISRDNAKNTVYLQMNSMKPEDTAVYYCAARSYFKWWYAMDYWGQGTQVTVSS | high polyreactivity
8 | QVQLVESGGGLVQAGGSLRLSCAASGGTFDDYAMGWYRQAPGKERELVAAISSSGGSTYYADSVKGRITISRDNAKNTVYLEMNSLKPDDTAVYYCAVDAFWRHWYYPYESHHDYWGQGTQVTVSS | low polyreactivity
9 | QVQLVESGGGLVQAGGSLRLSCAASGLTFRYNAMGWYRQATGKERELVARISRNGGRTYYADSVKGRFTISRDNAKNTVYLQMNSLKPEDTAVYYCNVVYFVTTSPGYDYWGQGTQVTVSS | high polyreactivity
10 | QVQLVESGGGLVQAGGSLRLSCAASGFIFTGNAMGWYRQAPGKERELVAAITGRGSTYYADSVKGRFTISRDNGKNSVYLQMNSLKPEDTAVYYCAAKRWWQYYWGQGTQVTVSS | high polyreactivity
11 | QVQLVESRRGLVQAGGSIRLSCAASGSTFPYNAMGWYRQAPGKDRELVAAITSAGGTNYADSVKGRFTISRDNAKNSVYLQMNSLKPEDSAVYSCAAVGSGYYDGYFYWGQGTQVTVSS | low polyreactivity
12 | QVQLVESGGGLVQAGGSLRVSCAASGFTFHKYAMGWYRQAPGKDRELVAVISQSASSTYYADSVKGRFTISRDNAKNTVYFQMNGLKPEDTAVYYCNAKYYRYNRRNYWGQGTQVTVSS | high polyreactivity
13 | QVQLVESGGGLVQAGGSLRLSCAASGRIFDWNTMGWYRQAPGKERELVAAISYDGSTYYADSVKGRFTISRDNAKNTVYLQMNSLKPEDTAVYYCNAYPLTQYFAQGYDYWGQGTQVTVSS | low polyreactivity
14 | QVQLVESGGRLVQAGGSLRLSCAASGFIFGFYAMGWYRQAPGKELELVAANSWSGGSTYYADSVKGRFTISRDKAKNTVFIQMNSLKPVDTAVYYCAAYFVYLDDAVTYDYWGQGTHVTVSS | low polyreactivity
15 | QVQLVESGGGLVQAGGSLRLSCAASGGIFFINAMGWYRQAPGKERELIAAISISDGSTYYADSVKGRFTISRDNAKNTVYLQMNSLKTEDTAVYYCAADYDVLRLGYARIPLYDYWGQGTQVTVSS | low polyreactivity
16 | QVQLVESGGGLVQAGGSLRLSCAASGSTIYGYAMGSYRQAPGKERELVAAISISGGGTYYADSVKGRFTISRDNAKNTVYIQMNSLKPEDTAVYYCARRYFWGQGTQVTVSS | low polyreactivity
17 | QVQLVESGGGLVQAGGSLRLSCAASGSIFQQYAMGWYRQAPGKERELVASINTSGDGTYYADSVKGRFTISRDNAKNSVYLQMNSLKPEDTAVYYCAVEGIFEQLNRMDYWGQGTQVTVSS | low polyreactivity
18 | QVQLVESGGGLVQAGGSLRLSCAASGRTFVYYAMGWYRQAPGKEREFVAAISRSGGRTSYADSVKGRFTISRDNAKNTVYLQMNSLKPEDTAVYYCAAEKRTQPTSREYYWVQGTQVTVSS | high polyreactivity
19 | QVQLVESGGGLVQAGGSLRLSCAASGFIFTSYDMGWYRQAPWKEREFVAAISWSGDRTYYADSVKGRFTISRDYAKNTVYLQMNSLKPEDTAVYYCAADRSIRRYYGYDYWGQGTQVTVSS | high polyreactivity
20 | QVQLVESGGGLDQAGGSLRLSCAASGRTFYYNAMGWYRQAPGKERELVADINWSGVRTYYADSVKGRFTISRDNAKNTVYLQMNSLKPEDTAVYYCAARYRTLTKYYWGQGTQVTVSS | low polyreactivity
21 | QVQLVESGGGLVQAGGSLRLSCAASGFTFSDNAMGWYRQAPGKERELVAAISRSGGNTHYADSVKGRFTISRDNAKNTVFLQMNSLKPEDTAVYYCAARPPGGYLYDYWGQGTQVTVSS | high polyreactivity
22 | QGQLVESGGGLVQAGGSLRLSCAASGRIFPYAMGWYRQAPGKERELVAAISRIGGITYYADSVKGRFTISRDNAKNTVYLQMNSLKPEDTAVYYCNARFHPYRWTFDYWGQGTQVTVSS | high polyreactivity

Row | Sequence | polyreactivity (PSR sort gate)
23 | QVQLVESGGGLDQAGGSLRLSCAASGRTFVYYALGWYRQAPRQERELVAAITWSGGRTYYADSVKGRFTISRDNAKNTVYLQMNSLKPEDTAVYYCNRDQWAWESGYAYNYCGQGTQVTVSS | low polyreactivity
24 | QVQLVESGGGLVQAGGSLRISCAASGRTFVGNAMGWYRQAPGKERELVAAMTLSDGSTYYADSVKGRFTISRDIAMNTVYLQMNSLKPEDTAVYYCNAGDGPDEEYDYWGQVTQVTVSS | low polyreactivity
25 | QVQLVESGGGLVQAGGSLRLSCAASGRIFSRYAMGWYRQAPGKERELVATITRRGGSTSYADSVKGRFTISRDNAKNTVYLHMNSLKPEDTAVYYCAAQSFYGIYYGQQDYDYWGQGTQVTVSS | high polyreactivity
26 | QVQIVESGGGLVQAGGSLRLSCAASGSIFYRYAMGWYRQAPGKEREFVAAIDYSGSITRYADSVKGRFTISRDNAKNTVYLQMNSLKPEDTAVYYCAARSYAKDWGGYNYWGQGTQVTVSS | high polyreactivity
27 | QVQLVESGGGLVQAGGSLRLSCAASGFIFDPNAMGWYRLAPGKERELVAAISSSGGRTYYADSVKGRFTISRDNAKNTVYLQMNSLKPEDTAVYYCNARDYSGFQTGASAAFDYWGQGTQVTVSS | low polyreactivity
28 | QVQFVESGGGLVQAGGSLRLSCAASGFTFVWYDMGWYRQAPGKERELVAAISSGGSTYYADSVKGRFTISRDNAKNTVYLQMNSLKPEDTAVYYCAVYTGYYNYIYQYDYWGQGTQVTVSS | low polyreactivity
29 | QVQLVESGGGLVQAGGSLRVSCGASGRTFLFYAMGWYRQAPGKERELVASITGRGGRTSYADSEKGRFTISRDNAKNTVYLQKNSLKPEDTAVYYCAARNPYTSTYYDWGQGTQETVSS | high polyreactivity
30 | QVQLVESGGGVVQAGGSLRLSCAASGFIFGYYATGWYRQAPGKERELVDAFTRSGGSTRYADSVKGRFTISRDNAKNTVYLHMNSLKPEDSAVYYCNAYAPRQLYGYDYWGQGTQVTVSS | high polyreactivity
31 | QVQLVESGGGLVQAGGSLRLSCAASGFTFQYSAMGWSRQAPGKERDVVAAIRSNGGSTYYADSVKGRFTISRDNAKNTVYLQMNSLKPEDTAVYYSAARAYKTYDWGQGTQVTVSS | high polyreactivity
32 | QVQLVESGGGLVQAGGSLRLSCAASGINYVRYAMGWYRQAPGKEREFVAAITRNGGRTYYADSVKGRFTISRDNAKNTVYLQMNSLKPEDTAVYYCAAYPAYPGTLEMDYWGQGTQVTVSS | high polyreactivity
33 | QVQLVESGGGLVHAGRSLRLSCAASGFIFVRNAMGWYRQAPGKERELVAAITRSGGSTSYADSVKGRFTISRDNEKNTVYLQMNSLKPEDTAVYYCAAQYGYWGQGTQVTVSS | high polyreactivity
34 | QVQLVESGGGLVKAGGSLRLSCGASGSIIVRYAMGWYRQAPGKERELVASISKRGGSTYYADSVKGRFTISRDNAKNTVYLQMNSLKPEDTEVYYCAAVCYYLVKFDYWGLGTQVTVSS | high polyreactivity
35 | QVQLVESGGGLVQAGGSLRLSCAASGGIFDTNAMGWYRQAPGKEREFVAAITGSGGSTYYADSVKGRFTISRDNAKNTVYLQMNSLKPEDTAVYYCAAPLSYYWVYIVRYGYDYWGQGTQVTVSS | low polyreactivity
36 | QVQLVESGGGLVQAGGSLRLSCAASGRTIDPNAMGWYRQAPGKERELVAAITRTGVRTYYADSVKGRFTISRDNAKNTVYLQMNSLKPEDTAVYYCNRYGARSNDYWGQGNQVTVSS | low polyreactivity
37 | QVQLVESGGGLVQAGGSLRLSCAASGNIFGDNAMGWYRQAPGKERELVAAITRIDGNTYYADSVKGRFTISRDNAKNTVYLQMNSLKPEDTAVYYCATDEPVGRYQHNYYWGQGSQVTVSS | low polyreactivity
38 | QVQLVESGGGLVQAGGNLRLSCAASGLIFWYNAMGWYRQAPGKERELVAAINWSGDSTYYADSVKGRFTISRDNAKNTVYLQMNSLKPEDTAVYYCAATEQSYGYDYWGQGTQVTVSS | low polyreactivity
39 | QFQLVESGGGLVQAGGSLRLSCAASGFTITFYAKGWYRQAPGKERELVAAIRTSDGRTYYADSVKGRFTISRDNAKNTVYLQMNSLKPEDTAVYYCAAQVYRPRARYYEYDYWGQGTQVTVSS | high polyreactivity
40 | QVQLVESGGGLDQAEGSLRLSCAASGSKINHYARGWYRQAPRKERELVAAITKSGGSTYADSVKGRFTISRDNAKNTVYLKMNSRKPEDTAVYYCAAGRRIYGTKGRGDYWGQGTQVTVSS | low polyreactivity
41 | QVQLVESGGGLVQAGGSLRLSCAASGSIFSTYAMGWYRQAPGKERELVAAISKSGGSTYYADSVKGRFTISRDNAKNTVYLQMNSLKPEDTAVYYCAATRWYGYKRWGYDYWGQGTQVTVSS | high polyreactivity
42 | QDQLVESGGGLVQAGGSLRLSCAASGFTFYAYAMGWYRQAPGKERELVAAITGRGGSTYYADSVKGRFTISRDNAKNTVYLPLNSLKPEDTAVYDCNKVKKSDKFNTVSNDYWGQGTQVTVSS | high polyreactivity
43 | QVQLVESGGGLVQAGGSLRLSCAASGSTFGWYAMGWYRQAPGKERELVAAITSVGSTYYADYVKGRFTISRDNAKNTVYLQMNSLKPEDTAVYYCANRFGYGWAWFGYWGQGTQVTVSS | low polyreactivity
